Experimental findings from patent publication US20040191860A1 are described below.

The target in experiment [1] is r150, 150 kDa GPI-anchored TGF-β1 binding protein (membrane anchored form) (human) (UniProt Q6YHK3). Kind of experiment: competition of unlabeled TGF-β3 with 125I-TGF-β1 on keratinocytes, affinity cross-link labeling, densitometry.
Experiment [2] addresses Transforming growth factor-β1 (UniProt P01137). The experiment in a line: 125I-TGF-β1 (50 pM) binding to MvLu1 cells with concentrated supernatant of untreated HaCaT cells (r150 released by an endogenous phospholipase), dose 2.
For experiment [3] the target is unchanged. Kind of experiment: 125I-TGF-β1 (50 pM) binding to MvLu1 cells with concentrated supernatant of PIPLC treated HaCaT cells, dose 2.
For experiment [4] the target is unchanged. Kind of experiment: 125I-TGF-β1 (50 pM) binding to MvLu1 cells with concentrated supernatant of untreated HaCaT cells (r150 released by an endogenous phospholipase), dose 1.
Experiment [5] shares this target. Kind of experiment: 125I-TGF-β1 (50 pM) binding to MvLu1 cells with concentrated supernatant of PIPLC treated HaCaT cells, dose 1 (one T-25 flask, about 1x10^6 cells).

Chain of Transforming growth factor-β1 (P01137 279-390 limits assumed): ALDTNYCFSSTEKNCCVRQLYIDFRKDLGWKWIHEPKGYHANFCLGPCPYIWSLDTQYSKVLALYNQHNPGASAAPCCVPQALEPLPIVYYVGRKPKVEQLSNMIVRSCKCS
Chain of r150, 150 kDa GPI-anchored TGF-β1 binding protein (membrane anchored form) (human) (Q6YHK3 other isoform, or with tags, fused parts or gaps limits assumed): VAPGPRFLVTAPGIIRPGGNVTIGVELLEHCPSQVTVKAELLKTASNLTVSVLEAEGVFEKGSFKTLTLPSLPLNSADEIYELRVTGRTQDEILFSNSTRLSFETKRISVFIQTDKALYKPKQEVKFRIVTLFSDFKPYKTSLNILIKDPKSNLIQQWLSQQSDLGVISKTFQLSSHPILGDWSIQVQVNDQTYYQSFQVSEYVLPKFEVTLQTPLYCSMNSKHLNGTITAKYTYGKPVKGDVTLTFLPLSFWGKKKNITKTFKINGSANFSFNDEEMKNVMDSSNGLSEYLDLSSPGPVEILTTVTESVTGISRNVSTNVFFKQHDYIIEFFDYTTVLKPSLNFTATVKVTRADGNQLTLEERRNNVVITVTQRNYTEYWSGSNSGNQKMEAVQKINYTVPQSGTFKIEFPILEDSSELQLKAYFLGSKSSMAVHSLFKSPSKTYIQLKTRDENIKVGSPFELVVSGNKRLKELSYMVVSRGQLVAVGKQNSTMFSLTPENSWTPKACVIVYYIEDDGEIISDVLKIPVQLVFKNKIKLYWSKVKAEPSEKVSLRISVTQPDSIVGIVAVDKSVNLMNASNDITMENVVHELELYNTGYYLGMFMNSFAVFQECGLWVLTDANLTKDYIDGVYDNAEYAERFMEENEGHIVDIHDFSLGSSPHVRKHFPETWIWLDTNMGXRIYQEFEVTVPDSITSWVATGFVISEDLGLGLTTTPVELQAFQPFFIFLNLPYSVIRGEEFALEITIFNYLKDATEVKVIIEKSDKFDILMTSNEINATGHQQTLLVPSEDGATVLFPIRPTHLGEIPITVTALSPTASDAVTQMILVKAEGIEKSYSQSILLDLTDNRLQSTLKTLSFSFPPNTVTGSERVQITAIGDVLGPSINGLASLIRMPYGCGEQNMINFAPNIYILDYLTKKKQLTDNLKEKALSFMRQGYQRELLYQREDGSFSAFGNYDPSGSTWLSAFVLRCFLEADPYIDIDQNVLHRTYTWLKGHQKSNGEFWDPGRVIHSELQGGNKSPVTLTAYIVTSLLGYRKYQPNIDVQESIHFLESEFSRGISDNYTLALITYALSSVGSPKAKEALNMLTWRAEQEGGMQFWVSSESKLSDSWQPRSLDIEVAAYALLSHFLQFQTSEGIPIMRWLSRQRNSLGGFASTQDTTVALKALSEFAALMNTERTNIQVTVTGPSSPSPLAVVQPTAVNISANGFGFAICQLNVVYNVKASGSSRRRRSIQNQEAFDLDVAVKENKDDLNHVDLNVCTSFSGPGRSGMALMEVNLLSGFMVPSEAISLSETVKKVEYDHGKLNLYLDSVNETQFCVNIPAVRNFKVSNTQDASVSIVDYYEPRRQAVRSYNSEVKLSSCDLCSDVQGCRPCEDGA

With “Transforming growth factor-β3 (from UniProt P10600 301-412) (ligand)”, the ratio of the concentration for half-maximal inhibition of 125I-TGF-β1 binding, r150 against the types I or II receptors in experiment [1] is 6 fold.
For “soluble r150 (released from the cell surface by PIPLC or by an endogenous phospholipase C) (from UniProt Q6YHK3 22-1420) (receptor)”, the percent inhibition of 125I-TGF-β1 binding to MvLu1 cells in experiment [2] worked out at 31%; in experiment [3], 50%; in experiment [4], 15%; in experiment [5], 33%.
